Test results as given in patent US20060040855A1.

What was measured:
[1] = target: rat LH receptor (rat) (UniProt P16235)
[2] = target: rat LH receptor (rat) (UniProt P16235); remark: listed apart in the source
[3] = target: rat LH receptor (rat) (UniProt P16235); remark: listed apart in the source
[4] = target: human FSH receptor (human) (UniProt P23945)

Row | cyclic AMP accumulation [1] | Efficacy, cyclic AMP accumulation [2] [%] | efficacy in cyclic AMP assays [3] | efficacy in cyclic AMP assays [4] | Substance
1 | 40 % of hCG | 42 |  |  | dghCG (hCG lacking the α-subunit loop 2 oligosaccharide) (from UniProt P01215) (ligand)
2 |  |  | < 10 % of hCG | < 4 % of hFSH | dgα37-β33CFC (dg-αY37C/CFC101-114βI33C) (from UniProt P01215) (ligand)
3 |  | 24 |  |  | dgα37-β33 (dg-αY37C/hCGβI33C) (from UniProt P01215) (ligand)
4 |  |  | < 10 % of hCG | < 4 % of hFSH | dgα37-β33CF (dg-αY37C/CF101-109βI33C) (from UniProt P01215) (ligand)
